Where two headings read alike, the source gives them in different places.

What is called Kd is the constant that tells how readily two partners part at equilibrium. Low readings indicate a tighter complex, high ones a looser complex.

Test in all cases: EMSA
For orientation: Mobility shift assays separate free from complexed probe on a gel.

Series [1] concerns the target T1, ΔL1 TEAD DBD (truncated L1 loop) (human, UniProt P28347 28-104, del52-63).
Series [2] deals with TEAD DBD, monomeric SEC fraction (F#61) (human, UniProt P28347 28-104).
Series [3] deals with TEAD DBD, multimeric SEC fraction (F#50) (human, UniProt P28347 28-104).
In series [4] the target is T1, ΔL1 TEAD DBD (truncated L1 loop). The source holds these as a separate data set.
In series [5] the target is TEAD DBD (before SEC) (human, UniProt P28347 28-104).

B1: 1xGT (dsDNA)
DNA 1: TTCGATACACTTGTGGAATGTGTTTGATTTGTTAGCCCCG
DNA 2: CGGGGCTAACAAATCAAACACATTCCACAAGTGTATCGAA
B1 registered a Kd in series [1] of 7.9 ± 1.4 nM. Moreover, the binding result in series [2] and in series [3] was “binds” each time.

B2: 2xGT (dsDNA)
DNA 1: TTCGATACACTTGTGGAATGTGTGGAATGTGTTAGCCCCG
DNA 2: CGGGGCTAACACATTCCACACATTCCACAAGTGTATCGAA
For the molecule B2, the binding result in series [2], in series [3] and in series [5] was “binds” throughout. This molecule also displayed a Kd in series [4] of 8.7 nM.

The values are drawn from article PMC4893915.
